In patent publication US20160250341A1 (Molecular Partners, published 2016):

Tests used:
Test in all cases: SPR (ProteOn), DARPin captured by anti-RGS-His antibody, albumin injected
human serum albumin = target: T1, human serum albumin (human, UniProt P02768 25-609)
T1 construct: also called HSA
Procedure: (§1) DARPins with binding specificity for xSA were immobilized in a flow cell via their His-tag to coated α-RGS-His antibody (Qiagen, cat. no. 34650), and the interaction of human, cynomolgus monkey (cyno), mouse, rat, rabbit and dog serum albumin with the immobilized DARPins were analyzed.
(§2) SPR was measured using a ProteOn instrument (BioRad) and measurement was performed according standard procedures known to the person skilled in the art. The running buffer was PBS, pH 7.4, containing 0.01% Tween 20®. Anti-RGS-His antibody was covalently immobilized on a GLC chip (BioRad) to a level of about 2000 resonance units (RU). Immobilization of DARPins on the antibody coated chip was then performed by injecting 150 μl of 1 μM DARPin solution in 300 s (flow rate=30 μl/min). The interaction with serum albumin of the different species was then measured by injecting in 60 sec a volume of 100 μl running buffer (PBS containing 0.01% Tween®) containing a distinct serum albumin at a concentration of 400, 200, 100, 50 nM (on-rate measurement), followed by a running buffer flow for 10 to 30 minutes (flow rate=100 μl/min) (off-rate measurement). The signals (i.e. resonance unit (RU) values) of an uncoated reference cell and a reference injection (i.e. injection of running buffer only) were subtracted from the RU traces obtained after injection of the serum albumins (double-referencing). From the SRP traces obtained from the on-rate and off-rate measurements the on- and off-rate of the corresponding DARPin serum albumin interaction can be determined.
(§3) While human and cynomolgus monkey serum albumin are bound by all DARPins analyzed, rabbit, mouse, rat and dog serum albumin is only bound by a subset of these DARPins.

[1] = target: T2, cynomolgus monkey serum albumin (cynomolgus monkey (macaca fascicularis), UniProt A2V9Z4 25-608)
T2 construct: also called CSA
T2 sequence (A2V9Z4 25-608 limits assumed): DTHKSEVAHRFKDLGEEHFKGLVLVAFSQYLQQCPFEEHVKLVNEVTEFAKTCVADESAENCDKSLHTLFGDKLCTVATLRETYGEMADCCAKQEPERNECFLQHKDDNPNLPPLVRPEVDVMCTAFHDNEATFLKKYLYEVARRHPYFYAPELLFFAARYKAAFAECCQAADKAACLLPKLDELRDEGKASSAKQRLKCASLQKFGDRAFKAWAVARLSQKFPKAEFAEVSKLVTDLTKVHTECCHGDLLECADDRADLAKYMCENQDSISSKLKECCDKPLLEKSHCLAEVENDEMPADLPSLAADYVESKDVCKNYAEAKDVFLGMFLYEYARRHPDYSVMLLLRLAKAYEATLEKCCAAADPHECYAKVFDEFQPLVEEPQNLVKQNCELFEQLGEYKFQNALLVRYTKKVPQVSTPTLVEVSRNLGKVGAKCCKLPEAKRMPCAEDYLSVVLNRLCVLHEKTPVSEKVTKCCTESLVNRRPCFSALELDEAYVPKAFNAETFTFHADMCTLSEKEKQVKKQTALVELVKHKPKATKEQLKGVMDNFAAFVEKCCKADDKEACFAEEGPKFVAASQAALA
Procedure: as §1, §2, §3

mouse serum albumin = target: T3, mouse serum albumin (mouse, UniProt P07724 25-608)
T3 construct: also called MSA
Procedure: as §1, §2, §3

rat serum albumin = rat serum albumin (rat, UniProt P02770 25-608)
Chain of rat serum albumin (P02770 25-608 limits assumed): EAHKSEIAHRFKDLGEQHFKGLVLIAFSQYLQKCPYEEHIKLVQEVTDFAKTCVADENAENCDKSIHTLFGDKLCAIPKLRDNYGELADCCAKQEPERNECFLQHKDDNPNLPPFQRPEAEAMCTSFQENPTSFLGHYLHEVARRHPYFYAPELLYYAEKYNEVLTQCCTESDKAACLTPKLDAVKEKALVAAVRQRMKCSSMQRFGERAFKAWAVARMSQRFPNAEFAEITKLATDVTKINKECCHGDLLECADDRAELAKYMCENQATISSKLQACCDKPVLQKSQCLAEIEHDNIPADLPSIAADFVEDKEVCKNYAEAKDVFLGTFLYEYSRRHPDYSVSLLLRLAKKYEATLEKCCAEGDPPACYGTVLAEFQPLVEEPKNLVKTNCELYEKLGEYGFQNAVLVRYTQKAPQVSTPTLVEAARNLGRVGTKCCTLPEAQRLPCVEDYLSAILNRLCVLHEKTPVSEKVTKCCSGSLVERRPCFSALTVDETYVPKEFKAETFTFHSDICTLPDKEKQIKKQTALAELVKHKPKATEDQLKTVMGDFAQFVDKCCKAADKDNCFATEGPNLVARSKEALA
Procedure: as §1, §2, §3

rabbit serum albumin = rabbit serum albumin (rabbit, UniProt P49065 25-608)
Chain of rabbit serum albumin (P49065 25-608 limits assumed): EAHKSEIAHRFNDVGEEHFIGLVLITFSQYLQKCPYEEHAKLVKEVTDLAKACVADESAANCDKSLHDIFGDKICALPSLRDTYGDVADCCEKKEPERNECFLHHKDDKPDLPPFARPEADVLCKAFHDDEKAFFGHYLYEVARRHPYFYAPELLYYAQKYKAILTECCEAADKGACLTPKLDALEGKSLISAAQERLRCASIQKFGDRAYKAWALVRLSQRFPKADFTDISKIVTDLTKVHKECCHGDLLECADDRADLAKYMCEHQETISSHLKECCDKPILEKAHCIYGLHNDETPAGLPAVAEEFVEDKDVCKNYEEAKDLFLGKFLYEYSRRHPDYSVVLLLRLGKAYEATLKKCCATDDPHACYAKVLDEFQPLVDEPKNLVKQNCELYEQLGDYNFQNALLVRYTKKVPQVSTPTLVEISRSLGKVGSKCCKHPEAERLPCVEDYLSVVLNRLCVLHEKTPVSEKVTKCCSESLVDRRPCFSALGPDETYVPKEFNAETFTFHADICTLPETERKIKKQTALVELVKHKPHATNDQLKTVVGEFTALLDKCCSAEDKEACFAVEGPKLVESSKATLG
Procedure: as §1, §2, §3

dog serum albumin = dog serum albumin (dog, UniProt P49822 25-608)
Chain of dog serum albumin (P49822 25-608 limits assumed): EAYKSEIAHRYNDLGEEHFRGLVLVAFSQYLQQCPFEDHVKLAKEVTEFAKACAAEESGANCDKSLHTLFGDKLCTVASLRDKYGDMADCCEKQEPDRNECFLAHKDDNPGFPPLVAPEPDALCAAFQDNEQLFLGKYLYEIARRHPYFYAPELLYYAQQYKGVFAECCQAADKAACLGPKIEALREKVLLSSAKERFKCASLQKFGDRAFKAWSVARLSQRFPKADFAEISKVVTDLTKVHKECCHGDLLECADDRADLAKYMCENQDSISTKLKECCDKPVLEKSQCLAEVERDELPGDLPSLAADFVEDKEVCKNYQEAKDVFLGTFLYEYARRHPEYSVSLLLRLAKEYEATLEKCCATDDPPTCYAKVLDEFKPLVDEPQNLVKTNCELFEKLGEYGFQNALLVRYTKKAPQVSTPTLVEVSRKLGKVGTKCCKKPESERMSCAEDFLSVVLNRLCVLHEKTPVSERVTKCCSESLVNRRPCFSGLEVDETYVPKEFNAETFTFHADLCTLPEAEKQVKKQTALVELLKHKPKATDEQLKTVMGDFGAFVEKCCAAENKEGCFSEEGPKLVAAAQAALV
Procedure: as §1, §2, §3

T1 sequence (P02768 25-609 limits assumed): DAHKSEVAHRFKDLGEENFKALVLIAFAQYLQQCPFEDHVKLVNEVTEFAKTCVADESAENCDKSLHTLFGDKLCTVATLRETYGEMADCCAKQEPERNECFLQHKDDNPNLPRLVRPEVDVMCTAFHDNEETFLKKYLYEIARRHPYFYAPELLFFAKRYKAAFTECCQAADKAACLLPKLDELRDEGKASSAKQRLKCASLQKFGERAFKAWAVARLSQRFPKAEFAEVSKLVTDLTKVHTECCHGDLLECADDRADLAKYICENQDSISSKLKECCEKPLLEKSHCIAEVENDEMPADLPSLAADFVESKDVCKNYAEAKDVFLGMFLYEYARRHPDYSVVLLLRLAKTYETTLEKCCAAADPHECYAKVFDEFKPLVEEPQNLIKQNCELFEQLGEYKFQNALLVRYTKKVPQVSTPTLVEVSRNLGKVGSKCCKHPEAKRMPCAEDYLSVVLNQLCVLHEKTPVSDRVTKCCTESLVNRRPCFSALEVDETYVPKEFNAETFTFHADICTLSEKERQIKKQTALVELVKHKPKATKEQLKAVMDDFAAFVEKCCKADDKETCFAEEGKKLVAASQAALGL

Binder | Kd (human serum albumin) | Kd [1] | binding result (mouse serum albumin) | binding result (rat serum albumin) | Kd (rabbit serum albumin) | binding result (dog serum albumin) | Kd (mouse serum albumin) | Kd (rat serum albumin) | binding result (rabbit serum albumin) | Kd (dog serum albumin)
DARPin #29 (designed binder) MRGSHHHHHHGSDLDKKLLEAARAGQDDEVRILMANGADVNAKDERGTTPLHLAAVYGHLEIVEVLLKAGADVNAKNETGYTPLHLADSSGHLEIVEVLLKHGADVNAQDKSGKTPADLAADAGHEDIAEVLQKLN | 15 nM | 7 nM | no binding (tested: up to 400 nM) | no binding (tested: up to 400 nM) | 17 nM | no binding (tested: up to 400 nM) | – | – | – | –
DARPin #27 (designed binder) MRGSHHHHHHGSDLDKKLLEAARAGQDDEVRILMANGADVNAKDERGTTPLHLAAVYGHLEIVEVLLKAGADVNAKNETGYTPLHLADSSGHLEIVEVLLKAGADVNAQDKSGKTPADLAADAGHEDIAEVLQKLN | 11 nM | 6 nM | no binding (tested: up to 400 nM) | no binding (tested: up to 400 nM) | 19 nM | no binding (tested: up to 400 nM) | – | – | – | –
DARPin #30 (designed binder) MRGSHHHHHHGSDLDKKLLEAARAGQDDEVRILMANGADVNAKDERGTTPLHLAAVYGHLEIVEVLLKAGADVNAKNETGYTPLHLADSSGHLEIVEVLLKASADVNAQDKSGKTPADLAADAGHEDIAEVLQKLN | 7 nM | 4 nM | no binding (tested: up to 400 nM) | no binding (tested: up to 400 nM) | 8 nM | no binding (tested: up to 400 nM) | – | – | – | –
DARPin #28 (designed binder) MRGSHHHHHHGSDLDKKLLEAARAGQDDEVRILMANGADVNAKDERGTTPLHLAAVYGHLEIVEVLLKAGADVNAKNETGYTPLHLADSSGHLEIVEVLLKHSADVNAQDKSGKTPADLAADAGHEDIAEVLQKLN | 6 nM | 3 nM | no binding (tested: up to 400 nM) | no binding (tested: up to 400 nM) | 9 nM | no binding (tested: up to 400 nM) | – | – | – | –
DARPin #20 (designed binder) MRGSHHHHHHGSDLDKKLLEAARAGQDDEVRILMANGADVNAKDYFSHTPLHLAARNGHLKIVEVLLKAGADVNAKDFAGKTPLHLAANDGHLEIVEVLLKHGADVNAQDIFGKTPADIAADAGHEDIAEVLQKLN | 27 nM | 110 nM | – | – | – | – | 124 nM | 242 nM | no binding (tested: up to 400 nM) | 185 nM
DARPin #43 (designed binder) MRGSHHHHHHGSDLGKKLLEAARAGQDDEVRILLKAGADVNAKDYFSHTPLHLAARNGHLKIVEVLLKAGADVNAKDFAGKTPLHLAANDGHLEIVEVLLKHGADVNAQDIFGKTPADIAADAGHEDIAEVLQKLN | 30 nM | – | – | – | – | – | – | – | – | –
DARPin #47 (designed binder) MRGSHHHHHHGSDLDKKLLEAARAGQDDEVRILLKAGADVNAKDYFSHTPLHLAARNGHLKIVEVLLKAGADVNAKDFAGKTPLHLAANDGHLEIVEVLLKAGADVNAQDIFGKTPADIAADAGHEDIAEVLQKLN | 96 nM | – | – | – | – | – | – | – | – | –
DARPin #48 (designed binder) MRGSHHHHHHGSDLDKKLLEAARAGQDDEVRELLKAGADVNAKDYFSHTPLHLAARNGHLKIVEVLLKAGADVNAKDFAGKTPLHLAANDGHLEIVEVLLKAGADVNAQDIFGKTPADIAADAGHEDIAEVLQKLN | 68 nM | – | – | – | – | – | – | – | – | –
DARPin #21 (designed binder) MRGSHHHHHHGSDLDKKLLEAARAGQDDEVRILMANGADVNAKDYFSHTPLHLAARNGHLEIVEVLLKAGADVNAKDFAGKTPLHLAANDGHLEIVEVLLKHGADVNAQDIFGKTPADIAADAGHEDIAEVLQKLN | 26 nM | 110 nM | – | – | – | – | 142 nM | 266 nM | no binding (tested: up to 400 nM) | 180 nM
DARPin #19 (designed binder) MRGSHHHHHHGSDLGKKLLEAARAGQDDEVRILMANGADVNAKDYFSHTPLHLAARNGHLKIVEVLLKAGADVNAKDFAGKTPLHLAANDGHLEIVEVLLKHGADVNAQDIFGKTPADIAADAGHEDIAEVLQKLN | 14 nM | 63 nM | – | – | – | – | 56 nM | 91 nM | no binding (tested: up to 400 nM) | 77 nM
DARPin #45 (designed binder) MRGSHHHHHHGSDLGKKLLEAARAGQDDEVRILLKAGADVNAKDYFSHTPLHLAARNGHLKIVEVLLKAGADVNAKDFAGKTPLHLAANDGHLEIVEVLLKAGADVNAQDIFGKTPADIAADAGHEDIAEVLQKLN | 35 nM | – | – | – | – | – | – | – | – | –
DARPin #44 (designed binder) MRGSHHHHHHGSDLGKKLLEAARAGQDDEVRELLKAGADVNAKDYFSHTPLHLAARNGHLKIVEVLLKAGADVNAKDFAGKTPLHLAANDGHLEIVEVLLKHGADVNAQDIFGKTPADIAADAGHEDIAEVLQKLN | 39 nM | – | – | – | – | – | – | – | – | –
DARPin #46 (designed binder) MRGSHHHHHHGSDLGKKLLEAARAGQDDEVRELLKAGADVNAKDYFSHTPLHLAARNGHLKIVEVLLKAGADVNAKDFAGKTPLHLAANDGHLEIVEVLLKAGADVNAQDIFGKTPADIAADAGHEDIAEVLQKLN | 43 nM | – | – | – | – | – | – | – | – | –
DARPin #22 (designed binder) MRGSHHHHHHGSDLGKKLLEAARAGQDDEVRILMANGADVNAKDYFSHTPLHLAARNGHLEIVEVLLKAGADVNAKDFAGKTPLHLAANDGHLEIVEVLLKHGADVNAQDIFGKTPADIAADAGHEDIAEVLQKLN | 13 nM | 74 nM | – | – | – | – | 68 nM | 109 nM | no binding (tested: up to 400 nM) | 81 nM
